Data as given in publication PMC12803514, “The RNA-binding protein HuR modulates the expression of the disease-linked CCL2 rs1024611G-rs13900T haplotype”.

Biological target: HuR (ELAVL1 human recombinant protein) (Homo sapiens, UniProt Q15717 1-326)
Experiment: EMSA; HuR 0-150 µM as printed (25-200 µM in Methods); 20 mM HEPES pH 7.6, 3 mM MgCl2, 40 mM KCl, 5% glycerol, 2 mM DTT, 20 µg yeast tRNA, 20 U RNasin, 20 µL, on ice 10 min (plus 15 min with antibody); 5% native PAGE, 0.5x TBE
Conditions: protein: commercial

Chain of HuR (ELAVL1 human recombinant protein) (Q15717 whole entry): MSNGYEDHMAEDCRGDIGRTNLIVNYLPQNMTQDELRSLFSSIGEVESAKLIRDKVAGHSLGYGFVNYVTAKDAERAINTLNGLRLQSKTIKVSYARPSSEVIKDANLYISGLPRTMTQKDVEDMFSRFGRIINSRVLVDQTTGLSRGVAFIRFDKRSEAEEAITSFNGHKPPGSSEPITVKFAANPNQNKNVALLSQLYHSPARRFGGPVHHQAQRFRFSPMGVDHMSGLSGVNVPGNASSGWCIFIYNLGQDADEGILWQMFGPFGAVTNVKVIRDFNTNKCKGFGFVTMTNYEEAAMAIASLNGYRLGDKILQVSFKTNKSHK

Binder: CUUUCCCCAGACACCUUGUUUUAUUU (ssRNA) [rs13900T oligoribonucleotide]
- binding result: binds
